Measured values as given in patent US20170015742A1 (published 2017).

What was measured:
[1] = target: recombinant human VEGF165 (human, UniProt P15692 207-395); experiment: cell-based or functional assay
[2] = target: recombinant human PDGF-BB (human, UniProt P01127 82-190); experiment: cell-based or functional assay
Chain of recombinant human PDGF-BB (P01127 82-190 limits assumed): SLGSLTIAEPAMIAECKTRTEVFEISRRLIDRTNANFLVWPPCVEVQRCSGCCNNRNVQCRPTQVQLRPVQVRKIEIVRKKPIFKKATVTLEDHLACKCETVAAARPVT

Chain of recombinant human VEGF165 (P15692 other isoform, or with tags, fused parts or gaps limits assumed): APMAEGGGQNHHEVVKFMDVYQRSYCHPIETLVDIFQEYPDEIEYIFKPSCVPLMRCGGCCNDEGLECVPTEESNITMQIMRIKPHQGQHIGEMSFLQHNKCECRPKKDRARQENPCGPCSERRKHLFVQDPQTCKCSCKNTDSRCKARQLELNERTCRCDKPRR

Row | Binder | Potency IC50 (nM) HMVEC-d hVEGF165 [1] [nM] | Potency IC50 (nM) NIH-3T3 hPDGF-BB [2] [nM]
1 | 4G8.5_GS_CL-33675 (bispecific antibody, human IgG1, kappa, L234A L235A) heavy: EIQLVQSGSELKKPGASVKVSCKASGYTFTNYGMYWVRQAPGQGLEYMGWINTETGKPTYADDFKGRFVFSLDTSVSTAYLQISSLKAEDTAVYFCARTNYYYRSYIFYFDYWGQGTMVTVSSGGGGSGGGGSEVTLRESGPALVKPTQTLTLTCTFSGFSLSTYGMGVGWIRQPPGKALEWLANIWWDDDKYYNPSLKNRLTISKDTSKNQVVLTMTNMDPVDTATYYCARIESSGPKYSFDYWGQGTMVTVSSASTKGPSVFPLAPSSKSTSGGTAALGCLVKDYFPEPVTVSWNSGALTSGVHTFPAVLQSSGLYSLSSVVTVPSSSLGTQTYICNVNHKPSNTKVDKKVEPKSCDKTHTCPPCPAPEAAGGPSVFLFPPKPKDTLMISRTPEVTCVVVDVSHEDPEVKFNWYVDGVEVHNAKTKPREEQYNSTYRVVSVLTVLHQDWLNGKEYKCKVSNKALPAPIEKTISKAKGQPREPQVYTLPPSREEMTKNQVSLTCLVKGFYPSDIAVEWESNGQPENNYKTTPPVLDSDGSFFLYSKLTVDKSRWQQGNVFSCSVMHEALHNAYTQKSLSLSPGK light: ATQLTQSPSLSASVGDRVTITCRASESVSTHMHWYQQKPGKQPKLLIYGASNLESGVPSRFSGSGSGTDFTLTISSLQPEDFATYFCQQSWNDPFTFGQGTKLEIKGGSGGGGSGGEIVLTQSPGTLSLSPGERATLSCRASSGSIWYSFVSWYQQKPGQAPRLLIYADDQRASGIPDRFSGSGSGTDFTLTISRLEPEDFAVYYCQSYGINIDVVFGGGTKVEIKRTVAAPSVFIFPPSDEQLKSGTASVVCLLNNFYPREAKVQWKVDNALQSGNSQESVTEQDSKDSTYSLSSTLTLSKADYEKHKVYACEVTHQGLSSPVTKSFNRGEC | 0.076 | 0.05
2 | 4G8.5_GS_3E2.1 (bispecific antibody, human IgG1, kappa, L234A L235A) heavy: EIQLVQSGSELKKPGASVKVSCKASGYTFTNYGMYWVRQAPGQGLEYMGWINTETGKPTYADDFKGRFVFSLDTSVSTAYLQISSLKAEDTAVYFCARTNYYYRSYIFYFDYWGQGTMVTVSSGGGGSGGGGSEVQLVQSGAEVKKPGSSVKVSCKASGYTFTESYMYWVKQAPGQGLELIGRIDPEDGSTDYVEKFKNKATLTADKSTSTAYMELSSLRSEDTAVYFCARFGARSYFYPMDAWGQGTTVTVSSASTKGPSVFPLAPSSKSTSGGTAALGCLVKDYFPEPVTVSWNSGALTSGVHTFPAVLQSSGLYSLSSVVTVPSSSLGTQTYICNVNHKPSNTKVDKKVEPKSCDKTHTCPPCPAPEAAGGPSVFLFPPKPKDTLMISRTPEVTCVVVDVSHEDPEVKFNWYVDGVEVHNAKTKPREEQYNSTYRVVSVLTVLHQDWLNGKEYKCKVSNKALPAPIEKTISKAKGQPREPQVYTLPPSREEMTKNQVSLTCLVKGFYPSDIAVEWESNGQPENNYKTTPPVLDSDGSFFLYSKLTVDKSRWQQGNVFSCSVMHEALHNAYTQKSLSLSPGK light: ATQLTQSPSLSASVGDRVTITCRASESVSTHMHWYQQKPGKQPKLLIYGASNLESGVPSRFSGSGSGTDFTLTISSLQPEDFATYFCQQSWNDPFTFGQGTKLEIKGGSGGGGSGGETVLTQSPATLSLSPGERATLSCRASESVSTLMHWYQQKPGQQPRLLIYGASNLESGVPARFSGSGSGTDFTLTISSLEPEDFAVYFCQQSWNDPWTFGGGTKVEIKRTVAAPSVFIFPPSDEQLKSGTASVVCLLNNFYPREAKVQWKVDNALQSGNSQESVTEQDSKDSTYSLSSTLTLSKADYEKHKVYACEVTHQGLSSPVTKSFNRGEC | 0.072 | 1.4
3 | 4G8.12-GS10-9E8.4 (bispecific antibody, human IgG1, kappa, L234A L235A) heavy: not shown light: DTVLTQSPATLSLSPGERATLSCRASESVSTHMHWYQQKPGQAPRLLIYGASNLESGVPARFSGSGSGTDFTLTISSLEPEDFAVYFCQQSWNDPFTFGQGTKLEIKRGGSGGGGSGEFVLTQSPGTLSLSPGERATLSCERSSGDIGDSYVSWYQQKPGQAPRLVIYADDQRPSGIPDRFSGSGSGTDFTLTISRLEPEDFAVYYCQSYDINIDIVFGGGTKVEIKRTVAAPSVFIFPPSDEQLKSGTASVVCLLNNFYPREAKVQWKVDNALQSGNSQESVTEQDSKDSTYSLSSTLTLSKADYEKHKVYACEVTHQGLSSPVTKSFNRGEC | 0.079 | 0.227
4 | 4G8.13-GS10-9E8.4 (bispecific antibody, human IgG1, kappa, L234A L235A) heavy: not shown light: ETVLTQSPATLSVSPGERATLSCRASESVSTHMHWYQQKPGQAPRLLIYGASNLESGVPARFSGSGSGTDFTLTISSLQSEDFAVYFCQQSWNDPFTFGQGTRLEIKRGGSGGGGSGEFVLTQSPGTLSLSPGERATLSCERSSGDIGDSYVSWYQQKPGQAPRLVIYADDQRPSGIPDRFSGSGSGTDFTLTISRLEPEDFAVYYCQSYDINIDIVFGGGTKVEIKRTVAAPSVFIFPPSDEQLKSGTASVVCLLNNFYPREAKVQWKVDNALQSGNSQESVTEQDSKDSTYSLSSTLTLSKADYEKHKVYACEVTHQGLSSPVTKSFNRGEC | 0.907 | 0.255
5 | 4G8.14-GS10-9E8.4 (bispecific antibody, human IgG1, kappa, L234A L235A) heavy: not shown light: DTVLTQSPSTLSASPGERATISCRASESVSTHMHWYQQKPGQAPKLLIYGASNLESGVPSRFSGSRSGTDFTLTISSLQPEDFAVYFCQQSWNDPFTFGQGTKVEIKRGGSGGGGSGEFVLTQSPGTLSLSPGERATLSCERSSGDIGDSYVSWYQQKPGQAPRLVIYADDQRPSGIPDRFSGSGSGTDFTLTISRLEPEDFAVYYCQSYDINIDIVFGGGTKVEIKRTVAAPSVFIFPPSDEQLKSGTASVVCLLNNFYPREAKVQWKVDNALQSGNSQESVTEQDSKDSTYSLSSTLTLSKADYEKHKVYACEVTHQGLSSPVTKSFNRGEC | 0.113 | 0.459
6 | AB014-GS15-9E8.4 VH-VK (bispecific antibody, human IgG1, kappa, L234A L235A) heavy: EVQLVESGGGLVQPGGSLRLSCAASGYTFTNYGMNWVRQAPGKGLEWVGWINTYTGEPTYAADFKRRFTFSLDTSKSTAYLQMNSLRAEDTAVYYCAKYPHYYGSSHWYFDVWGQGTLVTVSSASTKGPSVFPLAPSSKSTSGGTAALGCLVKDYFPEPVTVSWNSGALTSGVHTFPAVLQSSGLYSLSSVVTVPSSSLGTQTYICNVNHKPSNTKVDKKVEPKSCDKTHTCPPCPAPEAAGGPSVFLFPPKPKDTLMISRTPEVTCVVVDVSHEDPEVKFNWYVDGVEVHNAKTKPREEQYNSTYRVVSVLTVLHQDWLNGKEYKCKVSNKALPAPIEKTISKAKGQPREPQVYTLPPSREEMTKNQVSLTCLVKGFYPSDIAVEWESNGQPENNYKTTPPVLDSDGSFFLYSKLTVDKSRWQQGNVFSCSVMHEALHNAYTQKSLSLSPGKGGSGGGGSGGGGSGGEVTLRESGPALVKPTQTLTLTCTFSGFSLSTYGMGVGWIRQPPGKALEWLANIWWDDDKYYNPSLKNRLTISKDTSKNQVVLTMTNMDPVDTATYYCARIESIGTTYSFDYWGQGTMVTVSSGGGGSGGGGSGGGGSEIVLTQSPGTLSLSPGERATLSCERSSGDIGDSYVSWYQQKPGQAPRLVIYADDQRPSGIPDRFSGSGSGTDFTLTISRLEPEDFAVYYCQSYDINIDIVFGGGTKVEIK light: not shown | 0.13 | 0.066
7 | 4G8.2-GS10-9E8.4 (bispecific antibody, human IgG1, kappa, L234A L235A) heavy: not shown light: ATQLTQSPSLSASVGDRVTITCRASESVSTHMHWYQQKPGKQPKLLIYGASNLESGVPSRFSGSGSGTDFTLTISSLQPEDFATYFCQQSWNDPFTFGQGTKLEIKRGGSGGGGSGEFVLTQSPGTLSLSPGERATLSCERSSGDIGDSYVSWYQQKPGQAPRLVIYADDQRPSGIPDRFSGSGSGTDFTLTISRLEPEDFAVYYCQSYDINIDIVFGGGTKVEIKRTVAAPSVFIFPPSDEQLKSGTASVVCLLNNFYPREAKVQWKVDNALQSGNSQESVTEQDSKDSTYSLSSTLTLSKADYEKHKVYACEVTHQGLSSPVTKSFNRGEC | 0.221 | > 5
8 | 4G8.5-GS10-9E8.4 (bispecific antibody, human IgG1, kappa, L234A L235A) heavy: not shown light: ATQLTQSPSLSASVGDRVTITCRASESVSTHMHWYQQKPGKQPKLLIYGASNLESGVPSRFSGSGSGTDFTLTISSLQPEDFATYFCQQSWNDPFTFGQGTKLEIKRGGSGGGGSGEFVLTQSPGTLSLSPGERATLSCERSSGDIGDSYVSWYQQKPGQAPRLVIYADDQRPSGIPDRFSGSGSGTDFTLTISRLEPEDFAVYYCQSYDINIDIVFGGGTKVEIKRTVAAPSVFIFPPSDEQLKSGTASVVCLLNNFYPREAKVQWKVDNALQSGNSQESVTEQDSKDSTYSLSSTLTLSKADYEKHKVYACEVTHQGLSSPVTKSFNRGEC | 0.079 | > 5
9 | 4G8.4-GS10-9E8.4 (bispecific antibody, human IgG1, kappa, L234A L235A) heavy: not shown light: AIQLTQSPSSLSASVGDRVTITCRASESVSTHMHWYQQKPGKAPKLLIYGASNLESGVPSRFSGSGSGTDFTLTISSLQPEDFATYYCQQSWNDPFTFGQGTKLEIKRGGSGGGGSGEFVLTQSPGTLSLSPGERATLSCERSSGDIGDSYVSWYQQKPGQAPRLVIYADDQRPSGIPDRFSGSGSGTDFTLTISRLEPEDFAVYYCQSYDINIDIVFGGGTKVEIKRTVAAPSVFIFPPSDEQLKSGTASVVCLLNNFYPREAKVQWKVDNALQSGNSQESVTEQDSKDSTYSLSSTLTLSKADYEKHKVYACEVTHQGLSSPVTKSFNRGEC | 0.281 | 1.33
10 | AB014-GS10-9E8.4 VK-VH (bispecific antibody, human IgG1, kappa, L234A L235A) heavy: EVQLVESGGGLVQPGGSLRLSCAASGYTFTNYGMNWVRQAPGKGLEWVGWINTYTGEPTYAADFKRRFTFSLDTSKSTAYLQMNSLRAEDTAVYYCAKYPHYYGSSHWYFDVWGQGTLVTVSSASTKGPSVFPLAPSSKSTSGGTAALGCLVKDYFPEPVTVSWNSGALTSGVHTFPAVLQSSGLYSLSSVVTVPSSSLGTQTYICNVNHKPSNTKVDKKVEPKSCDKTHTCPPCPAPEAAGGPSVFLFPPKPKDTLMISRTPEVTCVVVDVSHEDPEVKFNWYVDGVEVHNAKTKPREEQYNSTYRVVSVLTVLHQDWLNGKEYKCKVSNKALPAPIEKTISKAKGQPREPQVYTLPPSREEMTKNQVSLTCLVKGFYPSDIAVEWESNGQPENNYKTTPPVLDSDGSFFLYSKLTVDKSRWQQGNVFSCSVMHEALHNAYTQKSLSLSPGKGGSGGGGSGGEIVLTQSPGTLSLSPGERATLSCERSSGDIGDSYVSWYQQKPGQAPRLVIYADDQRPSGIPDRFSGSGSGTDFTLTISRLEPEDFAVYYCQSYDINIDIVFGGGTKVEIKGGGGSGGGGSGGGGSEVTLRESGPALVKPTQTLTLTCTFSGFSLSTYGMGVGWIRQPPGKALEWLANIWWDDDKYYNPSLKNRLTISKDTSKNQVVLTMTNMDPVDTATYYCARIESIGTTYSFDYWGQGTMVTVSS light: not shown | 0.086 | 0.074
